From US20230183354A1 (IMMIOS HOLDING B V, published 2023)

How the values were obtained:
[1] = molecular target: T1, human CD103 (integrin Alpha-E) / human integrin Beta-7 heterodimer on cells (human, UniProt P38570 19-1179; P26010 20-798); test: flow cytometry competition on CD103+CD8+ T cells; pre-incubation with unlabeled 05A; table n=2
T1 construct: the assay field tells which cells; also called hCD103/hBeta7; CHO.K1-hCD103/hBeta7
Experimental: (§1) Percentage binding of fluorescently labeled mAbs was determined using flow cytometry. Maximum binding was set at 100%.
(§2) Percentage binding of fluorescently labeled mAbs was determined using flow cytometry. Maximum binding was set at 100%

[2] = molecular target: T1, human CD103 (integrin Alpha-E) / human …; test: flow cytometry competition on CD103+CD8+ T cells; pre-incubation with unlabeled 02A; table n=2
Experimental: as §1, §2

[3] = molecular target: T1, human CD103 (integrin Alpha-E) / human …; test: flow cytometry competition on CD103+CD8+ T cells; pre-incubation with unlabeled IgG (f2); table n=1
Experimental: as §2

[4] = molecular target: T1, human CD103 (integrin Alpha-E) / human …; test: flow cytometry competition on CD103+CD8+ T cells; pre-incubation with unlabeled 03A; table n=1
Experimental: as §1, §2

[5] = molecular target: T1, human CD103 (integrin Alpha-E) / human …; test: flow cytometry competition on CD103+CD8+ T cells; pre-incubation with unlabeled 03A; table n=2
Experimental: as §1, §2

CHO.K1-rhesusCD103/beta7 = molecular target: T2, CHO.K1-rhesusCD103/beta7; test: cell ELISA on CHO.K1-rhesusCD103/beta7 cells, abs 450-610
T2 construct: also called CHO.K1-rhCD103/rhBeta7; CHO-K1.rhCD103/rhBeta7
T2 alpha chain (rhesus integrin Alpha-E, CD103): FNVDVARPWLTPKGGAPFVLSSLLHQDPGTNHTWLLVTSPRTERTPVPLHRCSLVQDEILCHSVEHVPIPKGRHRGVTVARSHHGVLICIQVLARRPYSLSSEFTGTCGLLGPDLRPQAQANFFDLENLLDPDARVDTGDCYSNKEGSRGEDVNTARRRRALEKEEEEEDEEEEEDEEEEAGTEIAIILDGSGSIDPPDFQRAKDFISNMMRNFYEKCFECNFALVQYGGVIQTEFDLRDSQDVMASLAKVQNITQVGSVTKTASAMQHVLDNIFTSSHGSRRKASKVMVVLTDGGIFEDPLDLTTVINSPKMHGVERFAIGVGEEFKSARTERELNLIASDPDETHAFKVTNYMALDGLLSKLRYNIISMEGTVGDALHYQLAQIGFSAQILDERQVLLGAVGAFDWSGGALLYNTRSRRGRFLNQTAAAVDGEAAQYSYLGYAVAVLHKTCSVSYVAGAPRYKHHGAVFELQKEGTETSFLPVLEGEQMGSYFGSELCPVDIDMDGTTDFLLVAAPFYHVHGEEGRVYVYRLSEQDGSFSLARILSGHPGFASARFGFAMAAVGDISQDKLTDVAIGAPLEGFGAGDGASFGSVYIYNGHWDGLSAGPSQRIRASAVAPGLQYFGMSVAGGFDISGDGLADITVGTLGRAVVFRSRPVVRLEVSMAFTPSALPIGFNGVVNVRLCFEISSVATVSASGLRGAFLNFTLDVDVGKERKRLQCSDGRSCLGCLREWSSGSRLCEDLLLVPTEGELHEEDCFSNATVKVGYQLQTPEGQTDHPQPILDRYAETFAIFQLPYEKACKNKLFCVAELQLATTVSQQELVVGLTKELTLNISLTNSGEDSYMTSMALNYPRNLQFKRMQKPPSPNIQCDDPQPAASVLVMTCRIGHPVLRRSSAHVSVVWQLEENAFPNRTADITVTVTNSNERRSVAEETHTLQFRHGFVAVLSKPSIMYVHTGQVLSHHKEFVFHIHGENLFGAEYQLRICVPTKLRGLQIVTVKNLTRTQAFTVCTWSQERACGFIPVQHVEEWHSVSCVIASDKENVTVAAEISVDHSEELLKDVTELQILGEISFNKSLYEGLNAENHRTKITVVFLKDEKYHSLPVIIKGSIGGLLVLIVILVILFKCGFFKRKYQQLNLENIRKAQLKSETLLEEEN
T2 beta chain (rhesus integrin Beta-7): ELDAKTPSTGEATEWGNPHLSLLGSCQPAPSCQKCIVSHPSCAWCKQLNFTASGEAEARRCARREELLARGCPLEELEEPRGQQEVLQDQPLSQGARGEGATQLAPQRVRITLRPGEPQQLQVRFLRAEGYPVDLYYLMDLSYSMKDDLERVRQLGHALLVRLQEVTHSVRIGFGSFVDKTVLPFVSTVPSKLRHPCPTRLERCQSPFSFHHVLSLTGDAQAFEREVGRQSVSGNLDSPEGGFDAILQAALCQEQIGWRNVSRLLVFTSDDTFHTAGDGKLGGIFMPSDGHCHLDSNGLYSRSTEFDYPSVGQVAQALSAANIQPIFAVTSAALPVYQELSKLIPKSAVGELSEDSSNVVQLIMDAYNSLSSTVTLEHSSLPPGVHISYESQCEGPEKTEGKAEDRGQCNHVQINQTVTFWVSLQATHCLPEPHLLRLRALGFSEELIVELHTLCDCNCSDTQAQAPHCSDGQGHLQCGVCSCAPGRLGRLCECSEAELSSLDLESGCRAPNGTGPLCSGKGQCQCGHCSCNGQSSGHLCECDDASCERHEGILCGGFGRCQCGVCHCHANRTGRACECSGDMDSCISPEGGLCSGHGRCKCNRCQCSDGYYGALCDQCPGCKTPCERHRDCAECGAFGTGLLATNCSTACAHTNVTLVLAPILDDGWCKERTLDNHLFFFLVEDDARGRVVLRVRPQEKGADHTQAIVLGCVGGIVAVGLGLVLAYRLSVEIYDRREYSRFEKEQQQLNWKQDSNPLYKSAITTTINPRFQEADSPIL

T1 sequence (P38570 19-1179 limits assumed, chain 1 of 2): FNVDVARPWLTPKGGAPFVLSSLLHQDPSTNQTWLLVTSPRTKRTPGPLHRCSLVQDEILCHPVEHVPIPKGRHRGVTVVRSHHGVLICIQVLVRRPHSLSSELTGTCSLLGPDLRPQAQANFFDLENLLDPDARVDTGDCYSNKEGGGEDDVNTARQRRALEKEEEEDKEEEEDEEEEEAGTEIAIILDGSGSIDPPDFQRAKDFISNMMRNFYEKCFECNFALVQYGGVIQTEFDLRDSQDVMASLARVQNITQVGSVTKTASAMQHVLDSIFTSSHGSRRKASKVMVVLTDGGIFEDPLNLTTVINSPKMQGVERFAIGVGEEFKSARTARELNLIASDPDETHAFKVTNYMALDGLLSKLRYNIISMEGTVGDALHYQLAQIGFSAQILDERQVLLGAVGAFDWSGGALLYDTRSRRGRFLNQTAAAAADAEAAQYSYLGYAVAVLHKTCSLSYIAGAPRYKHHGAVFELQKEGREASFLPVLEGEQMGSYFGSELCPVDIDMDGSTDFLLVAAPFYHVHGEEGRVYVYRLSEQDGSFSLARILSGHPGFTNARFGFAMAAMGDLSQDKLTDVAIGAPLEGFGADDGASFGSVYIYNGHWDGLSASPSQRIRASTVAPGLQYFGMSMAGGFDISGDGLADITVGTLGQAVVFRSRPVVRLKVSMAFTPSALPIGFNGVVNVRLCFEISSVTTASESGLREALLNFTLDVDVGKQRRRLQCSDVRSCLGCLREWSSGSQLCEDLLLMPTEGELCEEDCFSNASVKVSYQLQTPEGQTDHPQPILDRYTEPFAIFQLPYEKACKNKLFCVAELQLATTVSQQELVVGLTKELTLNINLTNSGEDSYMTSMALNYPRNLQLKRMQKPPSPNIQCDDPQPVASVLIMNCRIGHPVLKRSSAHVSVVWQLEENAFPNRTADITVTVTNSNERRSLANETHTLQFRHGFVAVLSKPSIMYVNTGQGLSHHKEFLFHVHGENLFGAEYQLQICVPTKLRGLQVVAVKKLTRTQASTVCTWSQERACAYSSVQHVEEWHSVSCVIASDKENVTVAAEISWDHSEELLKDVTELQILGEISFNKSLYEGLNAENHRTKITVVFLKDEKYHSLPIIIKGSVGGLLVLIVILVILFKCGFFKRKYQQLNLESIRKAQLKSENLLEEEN
T1 sequence (P26010 20-798 limits assumed, chain 2 of 2): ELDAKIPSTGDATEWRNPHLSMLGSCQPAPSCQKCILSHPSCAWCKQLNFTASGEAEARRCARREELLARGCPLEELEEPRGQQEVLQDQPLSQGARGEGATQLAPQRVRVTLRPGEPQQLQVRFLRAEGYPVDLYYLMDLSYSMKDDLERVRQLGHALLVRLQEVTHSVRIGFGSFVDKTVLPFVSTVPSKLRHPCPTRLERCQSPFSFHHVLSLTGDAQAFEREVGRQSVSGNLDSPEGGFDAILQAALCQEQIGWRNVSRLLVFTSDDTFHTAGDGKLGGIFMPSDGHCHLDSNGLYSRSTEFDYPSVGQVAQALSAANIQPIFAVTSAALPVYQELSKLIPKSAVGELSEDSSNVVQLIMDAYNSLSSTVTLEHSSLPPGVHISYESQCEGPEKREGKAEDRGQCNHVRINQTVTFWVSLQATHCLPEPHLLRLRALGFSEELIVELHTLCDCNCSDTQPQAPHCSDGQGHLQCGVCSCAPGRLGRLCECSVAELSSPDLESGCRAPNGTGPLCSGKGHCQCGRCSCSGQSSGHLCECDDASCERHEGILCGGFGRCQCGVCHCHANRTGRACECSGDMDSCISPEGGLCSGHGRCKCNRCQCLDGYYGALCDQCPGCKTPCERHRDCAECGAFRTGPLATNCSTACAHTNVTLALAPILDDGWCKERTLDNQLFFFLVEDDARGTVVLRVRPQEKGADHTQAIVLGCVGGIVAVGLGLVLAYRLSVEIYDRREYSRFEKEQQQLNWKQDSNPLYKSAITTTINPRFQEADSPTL

Binder | % binding of the fluorescently labeled mAb (IgG pre-incubation = 100) [1] [%] | % binding of the fluorescently labeled mAb (IgG pre-incubation = 100) [2] [%] | % binding of the fluorescently labeled mAb (IgG pre-incubation = 100) [3] [%] | % binding of the fluorescently labeled mAb (IgG pre-incubation = 100) [4] [%] | % binding of the fluorescently labeled mAb (IgG pre-incubation = 100) [5] [%] | EC50 (read off the curve) (CHO.K1-rhesusCD103/beta7) [mg/L]
hCD103.05A (antibody, mouse IgG1, V domains shown, Also tested labelled with AF647, conjugated with Df and labelled with 89Zr; these are written under this molecule; also called clone 05A; hCD103.05 mAb) VH: EVQLQQSGPELEKPGASAKISCKASGYSFTGYNMNWVKQSNGKSLEWIGNIDPYYGGTSYNQKFKGKATLTVDKSSSTAYMQLKSLTSEDSAVYYCARSFYGYDAGSPYNYAMDYWGQGTPVTVSP VL: DIVMTQSHKFMSTSVGDRVSITCKASQDVGTFVAWYQQKPGQSPKLLIYWASTRHTGVPDRFTGSGSGTDFTLTISNVQSEDLADYFCHQYSSYPYTFGGGTQLEIK | 14.2 | 4.6 | 100 | 100 | 90.9 | –
hCD103.01A (antibody, V domains shown, Also tested labelled with AF647, conjugated with Df and labelled with 89Zr; these are written under this molecule; also called clone 01A; hCD103.01 mAb) VH: EVQLQESGPSLVKPSQTLSLTCSVTGDSITSGYWNWIRKFPGNKLEYMGYITYSGSTYYNPSLKSRISITRDTSKNQYYLQLNSVTTEDTATYYCTRHYYGSDAMDYWGQGTSVTVSS VL: DIVMTQSHKFMSTSVGDRVSITCKASQDVSIAVAWYQQRPGQSPKLLIYSASYRYTGVPDRFTGSGSGTDFTFTISSVQAEDLAVYYCQQHYSTPWTFGGGTKLEIK | 77.4 | 3 | 100 | 96.7 | 97.3 | ~0.05

Second part, the binder after the results:

% binding of the fluorescently labeled mAb (IgG pre-incubation = 100) [1] [%] | % binding of the fluorescently labeled mAb (IgG pre-incubation = 100) [2] [%] | % binding of the fluorescently labeled mAb (IgG pre-incubation = 100) [3] [%] | % binding of the fluorescently labeled mAb (IgG pre-incubation = 100) [4] [%] | % binding of the fluorescently labeled mAb (IgG pre-incubation = 100) [5] [%] | EC50 (read off the curve) (CHO.K1-rhesusCD103/beta7) [mg/L] | Binder
102 | 103 | 100 | 101 | 108 | ~0.05 | hCD103.06A (antibody, mouse IgG1, V domains shown, also called clone 06A; hCD103.06 mAb) VH: QVQLQQPGSELVRPGASVKLSCKASGYTFTSYWMHWVKQRHGQGLEWIGNIYPGSGSTNYDEKFKSKGTLTVDTSSSTAYMHLSSLTSEDSAVYYCTRGVYDNPYYFDYWGQGTTLTVSS VL: DIQMTQSSSNLSVSLGGRVTITCKASDHINNWLAWYQQKPGNAPRVLISGATSLETGVPSRFSGSGSGKDYTLSITSLQTEDVATYYCQQYWSIPLTFGAGTKLELK
11.4 | 0.9 | 100 | 94.4 | 77.8 | ~0.02 | hCD103.07A (antibody, mouse IgG1, V domains shown, also called clone 07A) VH: EVQLQESGPSLVKPSQTLSLTCSVTGDSITSGYWNWIRKFPGNKLEYMGYITYSGSTYYNPSLKSRISITRDTSKNQYYLQLNSVTTEDTATYYCARNYYGSSSMDYWGQGTSVTVSS VL: DIVMTQSQKFMSTSVADRVSVTCKASQNVGSDVAWYQQKPGQSPKSLIYSASYRYSGVPDRFTGSGSGTDFTLTISNVQSEDLAEYFCQQYNSYPSTFGGGTKLEIK
